Source: the supplement of paper PMC9170038

Tested on: K4 kissing-loop RNA reporter
Test: apparent KD of K4 kissing-loop reporter; higher = weaker reporter binding
Settings: Eterna round: R107
Protocol: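 RNA-MaP round R107: designed RNA switches with theophylline, tryptophan, arginine or FMN aptamers are transcribed on-chip within common flanks. They are titrated with a labelled K4 kissing-loop RNA reporter in RNA-MaP buffer (100 mM Tris pH 7.5, 80 mM KCl, 4 mM MgCl2), without ligand or with the indicated ligand. Median apparent KD per design.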

[1] = input ligand: theophylline 20 uM
[2] = input ligand: tryptophan 2.4 mM
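Also: bound reporter read as fluorescence of individual clusters on recovered sequencing chips by microscopy, with normalized cluster intensities fitted with a binding model.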

Row | Sequence | apparent KD of K4 kissing-loop reporter (input ligand: FMN 200 uM) [nM] | apparent KD of K4 kissing-loop reporter (input ligand: arginine 13.2 mM) [nM] | apparent KD of K4 kissing-loop reporter (input ligand: none) [nM] | apparent KD of K4 kissing-loop reporter [1] [nM] | apparent KD of K4 kissing-loop reporter [2] [nM]
1 | UUAGGCUCUCUUCUCAUUCGCUUAACCGAUACCAGAGUAAGCCCUCUCCCUUGGCAGCGGAGUGAUGUUCCGAGUGUUGAUAUUG [theeternabot_exclusion_KL_Theo_A_44] | 93.1 | 113 | 113 | 130 | 107
2 | UUAGUCUAGAGAGGAUAUCAGUGAUGUUGAUAUCAAGAUCUAAGAUAGAAUUCUAUCUUAGAUCAAUGAGAAGGCUCUAGACAUU [AK1.1 Exc FMN B] | 993 | 144 | 151 | 128 | 147
3 | UUAGUCUAGAGAGGAUAUCAGUGAUGUUGAUAUCAAGAUCUGAGAUAGAAUUCUAUCUCAGAUCAAUGAGAAGGCUCUAGACAUU [AK1.2 Exc FMN B] | 778 | 151 | 168 | 147 | 143
4 | UUCAGACUACUACUAUUUAGUAGUAUAUACUAGGAUAUCCAGAUAUGGAGAAGGAGUGAUGUUCCUUAGUAGUAGUGAAUUAAAU [KL-XFMN-A6] | 145 | 138 | 128 | 144 | 114
5 | UUCGGCCUGACGGCCGCCACUUUGGGUAGUGAUGUUACCAACAUUCACCAGAUACAGGUUACUUCAAGGACCGGGUCAGACGGUG [theeternabot_exclusion_KL_Trp_B_45] | 104 | 100 | 121 | 107 | 92.8
6 | UUCGUCGCGCAUGAUACCAGCGAGAUUUAACGCCGAAUCCUCACGCAGUGAUGUUGCACCCGCCCUUGGCAGCAUAGCCGGUUAC [theeternabot_sameState_KL_Theo_B_13] | 250 | 304 | 328 | 344 | 199
7 | UUGCGUCUCUGAGGAUAUCAGAACAGAGUGAUGUUCUGUCAACGCCCAGUGAUGUUGGAUGCGAUCUGAGAAGGCAGUGGGCGCG [Same State FMN B GF 10] | 202 | 188 | 219 | 177 | 184
8 | UUGUUAUGAUAAAAUCCUGUUUGAUAAAGACAGGAUAUAGAAAAUACUAGAAGGGUCAUUAUAUGCAGUGAUGUUGCAAAUAAGU [Exclusion FMN A Gf 22] | 41 | 60.8 | 38.4 | 55.1 | 35
9 | UUGUUUGGUUGAGAGGUUGGGCGAGAUGAUACCAGUAGAUAAGAAUACCCUUGGCAGCAUAAGAAAGAUAUAGUGAUGUUGUAUA [SSTheophA.N] | 566 | 386 | 553 | 525 | 478
10 | UUUAACGAGUGAUGUUCGAAAAGUAAUGGUGAGGAUAUCGUUUUUUCGAGAAGGCACCUCGAAGUGAUACGAAAGUAUCGCUUCG [FMN A 3] | 172 | 332 | 315 | 314 | 266
11 | UUUAACGAGUGAUGUUCGUAAAGUAAUAGUUAGGAUAUCGUUUUUUCGAGAAGGAACUUCGAAGUGAUACGAAAGUAUCGCUUCG [FMN A 8] | 136 | 192 | 192 | 205 | 152
12 | UUUAGGAGUGGUGUUGAUUAGGGAGCGGAAGGAGCGCCGAGGAAGGCAGGUAGGUCGCCGGAUUAUAGUGAUGUUAUGAAGAGGG [ExArg.M] | 875 | 723 | 792 | 912 | 654
13 | UUUAUUAAGACGGCCGCCACUGAAUCAUAGUGAUGUUAUGAUAUAAUUUUAGUGAUUUUGAUUAGCAGGACCGGGUCAAUUAUUA [#26 K4 Tryptophan B Exclusion] | 165 | 133 | 144 | 139 | 140
14 | UUUCGGUUCUGAGGAUAUUCGGACAAAUAUAGUGAUGUUGUAUAAGGAGGAGGGUGUUGGCAGUGCGGAGAAGGCAGACCAGGAU [ExFMNB.W] | 853 | 557 | 1170 | 878 | 546
15 | UUUGGAGUGGGAGGAUAUCCUAAUAUGGGUGAUGUUAGCGAUGUUGAAAGUGUAGUGAUGUUGUGCGGAGAAGGUCCAGUGUAGA [BDazzled - #14 - Exc. FMN B] | 242 | 165 | 285 | 292 | 240
16 | UUUUAAAUAUCUGAUACCAGAGCGAAUAUAUGUAGUGAUGUUAUAUACAAAAUAAAUAAGCUCCCUUGGCAGCAGUAUUAAUUUU [Astros-ExyTheB#?#ED14.66] | 1020 | 829 | 919 | 961 | 968
17 | UUUUAAAUGUCUGAUACCAGAGAAAAUAUAUGUAGUGAUGUUAUAUACAAAUUUAAUAAGCUCCCUUGGCAGCAGUAUGAAUUUU [AstrosExc-TheB#12] | 616 | 766 | 873 | 784 | 552
18 | UUUUUCCCGCAGGAUACCAGCAACCAAACGUCAUGCGAAGUGAUGUUUCGCUUACGGUAGUGCCCUUGGCAGCCUUCGGUAGGGU [thingy] | 196 | 161 | 183 | 119 | 161
19 | UUUUUCGCGUUUGAUACCAGCAGAGUUGUUCUUGUCUGGAACAUGAGUGAUGUUCAUGUCUGCCCUUGGCAGCAAACGGGAGAAG [KL-XTheo-B12] | 122 | 111 | 110 | 114 | 116
20 | UUUUUUUACUGAAGGAGCGGCAAUUGAUACGUAGAUAUAGUGAUGUUAUAUAAGAUAGAGAGCCAGGUAGGUCGCAGAUUUUUUC [ExArgB.X] | 194 | 160 | 172 | 143 | 129
